The values below come from patent US20150011431A1 (Scripps Research, published 2015).

Assay [1] concerns the target T1, CXCR1 (UniProt P25024 1-350, limits assumed).
T1 construct: whole, on cells; DiscoveRx cells engineered with a luminescent reporter enzyme for beta-arrestin recruitment; also called CXCR1-U2OS; U2OS-CXCR1
T1 sequence (looked up): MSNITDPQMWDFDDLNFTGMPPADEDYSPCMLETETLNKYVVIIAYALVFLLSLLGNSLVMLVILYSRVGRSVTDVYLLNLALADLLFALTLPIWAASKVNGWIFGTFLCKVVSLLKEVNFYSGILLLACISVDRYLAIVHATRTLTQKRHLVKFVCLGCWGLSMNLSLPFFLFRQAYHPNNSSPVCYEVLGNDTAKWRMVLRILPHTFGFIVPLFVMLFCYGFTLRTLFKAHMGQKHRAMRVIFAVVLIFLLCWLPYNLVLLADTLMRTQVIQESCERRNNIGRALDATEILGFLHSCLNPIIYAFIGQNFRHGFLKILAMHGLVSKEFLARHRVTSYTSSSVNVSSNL
Put plainly: flow cytometry; fluorescence on CXCR1-U2OS cells over fluorescence on parental U2OS cells. As to the method: In an exemplary method, BLV1H12 IgG comprising a CDR3 with an IL-8 insert (e.g., the IL-8 sequence replaced a portion of the CDR3) was evaluated for binding to CXCR1 expressing cells by flow cytometry. Briefly, a cell line expressing functionally validated CXCR1 derived from U2OS cells was obtained from DiscoveRx and cultured per manufacturer's instructions (Cat#93-0226C3, DiscoveRx Corporation, Freemont, Calif.). The parental cell line U2OS was obtained from ATCC and cultured under the same conditions as the CXCR1 cells. Cell culture supernatants were then tested for binding to cells by flow cytometry. The adherent U2OS or CXCR1-U2OS cells were dissociated with Accutase (Innovative Cell Technologies, Inc., San Diego, Calif.), neutralized with an equal volume of media containing 10% serum, centrifuged at 1000 g, and resuspended in PBS with 2% BSA. Next, cells were dispensed into microtiter plates to achieve between 30,000 to 300,000 cells per well, centrifuged again, and resuspended in cell culture supernatant containing expressed IgG, or a dilution of IgG-containing cell culture supernatant. A fluorescent-conjugated anti-Human Fc antibody was used to detect binding of the expressed antibody to cells.
Alternatively, using the BLV1H12 light chain variable region as a guide, the human germline sequences identified with closest homology were V1-47 and V1-51.
Background: In flow cytometry, cells or beads pass a laser one at a time.

The target in assay [2] is T1, CXCR1. The assay is described as follows: flow cytometry with 2 ug/ml heparin sulfate, IgG normalized to 10 nM; CXCR1-U2OS against parental U2OS cells. How it is done: Cell culture supernatants were then tested for binding to cells by flow cytometry. The adherent U2OS or CXCR1-U2OS cells were dissociated with Accutase (Innovative Cell Technologies, Inc., San Diego, Calif.), neutralized with an equal volume of media containing 10% serum, centrifuged at 1000 g, and resuspended in PBS with 2% BSA. Next, cells were dispensed into microtiter plates to achieve between 30,000 to 300,000 cells per well, centrifuged again, and resuspended in cell culture supernatant containing expressed IgG, or a dilution of IgG-containing cell culture supernatant. A fluorescent-conjugated anti-Human Fc antibody was used to detect binding of the expressed antibody to cells.
In an exemplary method, variants of V1-51 were made by overlap PCR and subcloned into pFuse vector for expression as described in Example 4. […] These V1-51 variants were paired with heavy chains encoding VH4-34+CDR3-IL8 (SEQ ID NO: 430), VH4-34+CDR3-IL8_CDR1 Cow (SEQ ID NO: 432), VH4-34+CDR3-IL8_CDR2 Cow (SEQ ID NO: 433), or VH4-34+CDR3-IL8_CDR1 Cow CDR2 Cow, (SEQ ID NO: 436). Transfections and ELISA were carried out as described above, and flow cytometry was used to evaluate CXCR1 binding specificity as previously described, with the modification that cells were resuspended in 2% BSA in PBS plus 2 ug/ml Heparin sulfate, and IgGs were normalized to 10 nM during incubation on cells.

B1: IgG with VH4-34+CDR3-IL8_CDR1 Cow_CDR2 Cow and light chain V1-51 (antibody)
heavy: not shown
light: QSVLTQPPSVSAAPGQKVTISCSGSSSNIGNNYVSWYQQLPGTAPKLLIYDNNKRPSGIPDRFSGSKSGTSATLGITGLQTGDEADYYCASAEDSSSNAVFGSGTTLTVLGQPKAAPSVTLFPPSSEELQANKATLVCLISDFYPGAVTVAWKADSSPVKAGVETTTPSKQSNNKYAASSYLSLTPEQWKSHRSYSCQVTHEGSTVEKTVAPTECS
notes: IgG, human IgG1 CH1-CH2-CH3; supernatant; also called Cow / Cow / V1-51; VH4-34 CDR3-IL8 CDR1-Cow & CDR2-Cow with V1-51
For the molecule B1, the “CXCR1/Parental Ratio” value with CXCR1 [1] is 3.1. Besides, the CXCR1 specificity in the assay with CXCR1 [2] worked out at 11.1.
